We go through five proteins from paper PMC4537775 (Cell, 2015).

Numbering of substitutions follows the chain as printed. Numbers in names are those of the source. Like-named read-outs stand apart in the source and are kept apart here.

Series [1] concerns the molecule itself. The series can be described thus: SEC. Background: SEC sorts molecules by how far they enter the pores of the column.
Series [2] concerns the molecule itself. The series can be described thus: SEC. The source holds these as a separate data set.

B1: full-length IstB (AAA+ ATPase subunit of the Geobacillus stearothermophilus IS21 family member IS5376) (natural protein, UniProt Q45619 1-251, looked up)
chain: MKERIHEYCHRLHLPVMAERWSAMAEYASTHNISYSEFLFRLLEAEIVEKQARSIQTLIKLSKLPYRKTIDTFDFTAQPSVDERRIRELLTLSFIDRKENILFLGPPGIGKTHLAISIGMEAIARGYKTYFITAHDLVNQLRRADQEGKLEKKLRVFVKPTVLIIDEMGYLKLDPNSAHYLFQVIARRYEHAPIILTSNKSFGEWGEIVGDSVLATAMLDRLLHHSIIFNLKGESYRLREKRLQEEKQKDQ
As a reminder, the stoichiometry N is the number of molecules, sites or subunits per partner or assembly. Regarding B1, the “stoichiometry N” value in series [1] stood at 2.

B2: full-length IstB Walker-B mutant E167Q (natural protein, Geobacillus stearothermophilus, UniProt Q45619 1-251, looked up)
chain: B1 chain with E167Q
Turning to B2, in series [2], the “stoichiometry N” value was 2.

B3: full-length IstB arginine finger mutant R221A (natural protein, Geobacillus stearothermophilus, UniProt Q45619 1-251, looked up)
chain: B1 chain with R221A
With B3, in series [2], the “stoichiometry N” value is 2.

B4: full-length IstB Walker-A mutant K111A (natural protein, Geobacillus stearothermophilus, UniProt Q45619 1-251, looked up)
chain: B1 chain with K111A
On to B4, for which the “stoichiometry N” value in series [2] stood at 2.

B5: full-length IstB sensor-II mutant R237A (natural protein, Geobacillus stearothermophilus, UniProt Q45619 1-251, looked up)
chain: B1 chain with R237A
Take B5: the “stoichiometry N” value in series [2] came to 2.
